The target of this assay is Alexa Fluor 594 labelled calmodulin (Molecular Probes). As to the kind of experiment: gel filtration assay (Example 3): Alexa Fluor 594 labelled calmodulin eluting with the particles; reference is ferritin particles without binding molecule. For orientation: In gel filtration, larger molecules generally elute earlier.

For “Ferritin based particles expressing cbp on their surface (CBP-Human ferritin light chain fusion protein, plasmid pCBPHFI) (from UniProt P02792 2-175) (peptide)”, the fold signal as compared to particles produced with pET-26(+)rHuLFt was determined as 4.1 fold.

The values above are taken from US20060148016A1.
